From paper PMC9750158 (Science Advances, 2022) come the findings set out here.

The target of one assay is T1, WAVE1(1-230) (human, UniProt Q92558 1-230).
T1 sequence: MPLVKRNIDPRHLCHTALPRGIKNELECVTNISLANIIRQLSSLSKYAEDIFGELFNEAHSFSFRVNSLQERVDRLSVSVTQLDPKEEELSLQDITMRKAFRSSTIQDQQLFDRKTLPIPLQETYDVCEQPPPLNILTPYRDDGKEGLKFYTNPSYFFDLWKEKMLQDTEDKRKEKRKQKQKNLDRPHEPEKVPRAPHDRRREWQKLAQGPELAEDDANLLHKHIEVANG
Briefly: reconstitution and co-purification of subcomplexes and pentamer.

The target of the next assay is Sra1 (human, UniProt Q7L576 1-1253). The description is as above.
Sra1, sequence (Q7L576 whole entry): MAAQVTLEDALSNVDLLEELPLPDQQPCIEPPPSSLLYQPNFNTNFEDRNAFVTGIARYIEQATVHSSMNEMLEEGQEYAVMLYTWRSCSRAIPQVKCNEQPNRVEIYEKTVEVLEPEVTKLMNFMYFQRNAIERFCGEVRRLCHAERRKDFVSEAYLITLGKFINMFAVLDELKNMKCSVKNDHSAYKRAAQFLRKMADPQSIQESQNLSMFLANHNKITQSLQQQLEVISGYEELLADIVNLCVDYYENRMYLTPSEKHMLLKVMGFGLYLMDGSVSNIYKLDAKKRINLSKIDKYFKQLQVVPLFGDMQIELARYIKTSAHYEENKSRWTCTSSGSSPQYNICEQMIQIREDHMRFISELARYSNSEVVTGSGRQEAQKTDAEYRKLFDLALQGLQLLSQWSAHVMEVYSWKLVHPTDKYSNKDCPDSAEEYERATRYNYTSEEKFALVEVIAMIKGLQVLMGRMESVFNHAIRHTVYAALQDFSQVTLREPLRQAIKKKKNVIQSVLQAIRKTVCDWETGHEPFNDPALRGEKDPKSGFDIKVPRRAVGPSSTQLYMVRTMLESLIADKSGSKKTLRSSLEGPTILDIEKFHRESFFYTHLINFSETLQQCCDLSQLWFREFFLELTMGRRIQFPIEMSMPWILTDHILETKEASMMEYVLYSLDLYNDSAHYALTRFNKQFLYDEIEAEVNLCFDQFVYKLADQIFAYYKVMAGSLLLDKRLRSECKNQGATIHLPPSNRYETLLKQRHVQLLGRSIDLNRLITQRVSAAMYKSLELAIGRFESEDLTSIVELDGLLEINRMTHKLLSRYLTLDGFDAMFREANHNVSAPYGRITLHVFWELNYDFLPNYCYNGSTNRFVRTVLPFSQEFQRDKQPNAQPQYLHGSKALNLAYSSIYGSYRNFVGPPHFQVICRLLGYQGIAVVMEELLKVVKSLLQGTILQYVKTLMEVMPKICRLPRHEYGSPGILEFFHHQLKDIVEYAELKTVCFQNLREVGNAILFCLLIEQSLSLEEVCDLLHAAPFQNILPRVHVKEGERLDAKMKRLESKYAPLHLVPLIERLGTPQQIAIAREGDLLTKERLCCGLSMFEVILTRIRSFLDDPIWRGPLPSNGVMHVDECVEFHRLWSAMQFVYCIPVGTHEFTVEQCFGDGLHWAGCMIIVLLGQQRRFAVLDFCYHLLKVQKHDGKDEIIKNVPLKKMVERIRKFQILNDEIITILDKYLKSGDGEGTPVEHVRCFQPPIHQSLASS
A further assay deals with Sra1/Nap1 dimer (human, UniProt Q7L576;Q9Y2A7). The description is as above.
Sra1/Nap1 dimer, sequence (Q7L576 whole entry, one chain of several): as the sequence (Q7L576 whole entry) above
The target of assay [1] is ∆WRC230 with Sra1 W845A/Y849A (∆M#3) (human, UniProt Q7L576;Q9Y2A7;Q92558;Q9NYB9;Q8WUW1, W845A | Y849A). Briefly: pull-down.
∆WRC230 with Sra1 W845A/Y849A (∆M#3), sequence (Q7L576 whole entry W845A/Y849A, one chain of several): as the sequence (Q7L576 whole entry) above, with W845A, Y849A counted along it

B1: HSPC300 (natural protein)
chain: MAGQEDPVQREIHQDWANREYIEIITSSIKKIADFLNSFDMSCRSRLATLNEKLTALERRIEYIEARVTKGETLT
With B1, in the assay with WAVE1(1-230), the binding result is listed as “binds”.

B2: Nap1 (natural protein)
chain: MSRSVLQPSQQKLAEKLTILNDRGVGMLTRLYNIKKACGDPKAKPSYLIDKNLESAVKFIVRKFPAVETRNNNQQLAQLQKEKSEILKNLALYYFTFVDVMEFKDHVCELLNTIDVCQVFFDITVNFDLTKNYLDLIITYTTLMILLSRIEERKAIIGLYNYAHEMTHGASDREYPRLGQMIVDYENPLKKMMEEFVPHSKSLSDALISLQMVYPRRNLSADQWRNAQLLSLISAPSTMLNPAQSDTMPCEYLSLDAMEKWIIFGFILCHGILNTDATALNLWKLALQSSSCLSLFRDEVFHIHKAAEDLFVNIRGYNKRINDIRECKEAAVSHAGSMHRERRKFLRSALKELATVLSDQPGLLGPKALFVFMALSFARDEIIWLLRHADNMPKKSADDFIDKHIAELIFYMEELRAHVRKYGPVMQRYYVQYLSGFDAVVLNELVQNLSVCPEDESIIMSSFVNTMTSLSVKQVEDGEVFDFRGMRLDWFRLQAYTSVSKASLGLADHRELGKMMNTIIFHTKMVDSLVEMLVETSDLSIFCFYSRAFEKMFQQCLELPSQSRYSIAFPLLCTHFMSCTHELCPEERHHIGDRSLSLCNMFLDEMAKQARNLITDICTEQCTLSDQLLPKHCAKTISQAVNKKSKKQTGKKGEPEREKPGVESMRKNRLVVTNLDKLHTALSELCFSINYVPNMVVWEHTFTPREYLTSHLEIRFTKSIVGMTMYNQATQEIAKPSELLTSVRAYMTVLQSIENYVQIDITRVFNNVLLQQTQHLDSHGEPTITSLYTNWYLETLLRQVSNGHIAYFPAMKAFVNLPTENELTFNAEEYSDISEMRSLSELLGPYGMKFLSESLMWHISSQVAELKKLVVENVDVLTQMRTSFDKPDQMAALFKRLSSVDSVLKRMTIIGVILSFRSLAQEALRDVLSYHIPFLVSSIEDFKDHIPRETDMKVAMNVYELSSAAGLPCEIDPALVVALSSQKSENISPEEEYKIACLLMVFVAVSLPTLASNVMSQYSPAIEGHCNNIHCLAKAINQIAAALFTIHKGSIEDRLKEFLALASSSLLKIGQETDKTTTRNRESVYLLLDMIVQESPFLTMDLLESCFPYVLLRNAYHAVYKQSVTSSA
As to B2, the binding result with Sra1 is “binds”.

B3: Abi2(1-158) (domain or fragment)
chain: MAELQMLLEEEIPGGRRALFDSYTNLERVADYCENNYIQSADKQRALEETKAYTTQSLASVAYLINTLANNVLQMLDIQASQLRRMESSINHISQTVDIHKEKVARREIGILTTNKNTSRTHKIIAPANLERPVRYIRKPIDYTILDDIGHGVKWLLR
As for B3, the binding result with WAVE1(1-230) was “binds”.

B4: WAVE1(1-230)/Abi2(1-158)/HSPC300 trimer (complex)
chain 1: MPLVKRNIDPRHLCHTALPRGIKNELECVTNISLANIIRQLSSLSKYAEDIFGELFNEAHSFSFRVNSLQERVDRLSVSVTQLDPKEEELSLQDITMRKAFRSSTIQDQQLFDRKTLPIPLQETYDVCEQPPPLNILTPYRDDGKEGLKFYTNPSYFFDLWKEKMLQDTEDKRKEKRKQKQKNLDRPHEPEKVPRAPHDRRREWQKLAQGPELAEDDANLLHKHIEVANG
chain 2: MAELQMLLEEEIPGGRRALFDSYTNLERVADYCENNYIQSADKQRALEETKAYTTQSLASVAYLINTLANNVLQMLDIQASQLRRMESSINHISQTVDIHKEKVARREIGILTTNKNTSRTHKIIAPANLERPVRYIRKPIDYTILDDIGHGVKWLLR
chain 3: MAGQEDPVQREIHQDWANREYIEIITSSIKKIADFLNSFDMSCRSRLATLNEKLTALERRIEYIEARVTKGETLT
On to B4, for which the binding result in the assay with Sra1/Nap1 dimer is “binds”.

B5: GST-Arf1 (Arf1^∆N17) (natural protein)
chain: not shown
With B5, in assay [1], the binding result was “binds”.
